Assay [1] addresses human CD123 on CHO cells expressing human CD123 (human) (UniProt P26951). The assay is described as follows: flow cytometry on CHO cells expressing human CD123, 4-parameter fit (direct binding; column headed IC50).
Assay [2] has the same target. The assay can be described thus: flow cytometry on CHO cells expressing human CD123, 4-parameter fit. In general terms: Flow cytometry measures light scatter and fluorescence of single cells or particles in a stream.

Residue numbers refer to the chain shown, from its start.

Sequence of human CD123 on CHO cells expressing human CD123 (human) (P26951 19-378): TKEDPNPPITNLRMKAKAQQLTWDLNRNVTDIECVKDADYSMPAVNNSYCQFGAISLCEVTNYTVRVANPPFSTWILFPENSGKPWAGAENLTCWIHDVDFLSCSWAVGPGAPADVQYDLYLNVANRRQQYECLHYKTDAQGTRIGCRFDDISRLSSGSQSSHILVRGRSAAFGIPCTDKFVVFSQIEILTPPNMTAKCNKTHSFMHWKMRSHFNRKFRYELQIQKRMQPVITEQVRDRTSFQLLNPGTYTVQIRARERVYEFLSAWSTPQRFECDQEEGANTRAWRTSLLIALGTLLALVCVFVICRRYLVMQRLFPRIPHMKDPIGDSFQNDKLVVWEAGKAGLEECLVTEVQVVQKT

B1: 32716 IgG (antibody, V domains shown)
VH: QIQLVQSGPELKKPGETVKISCKASGYIFTNYGMNWVKQAPGKSFKWMGWINTYTGESTYSADFKGRFAFSLETSASTAYLHINDLKNEDTATYFCARSGGYDPMDYWGQGTSVTVSS
VL: DIVLTQSPASLAVSLGQRATISCRASESVDNYGNTFMHWYQQKPGQPPKLLIYRASNLESGIPARFSGSGSRTDFTLTINPVEADDVATYYCQQSNEDPPTFGAGTKLELK
As for B1, the EC50 (in general, the concentration that produces a half-maximal response) in assay [1] was 11 nM. In addition, the Max binding intensity (MFI) in assay [2] was 910000 MFI.

B2: h32716-4-2 IgG (antibody, V domains shown)
VH: QVQLVQSGPELKKPGASVKVSCKASGYIFTNYGMNWVRQAPGQGLEWMGWINTYTGESTYSADFKGRFVFSLDTSVSTAYLQISSLKAEDTAVYYCARSGGYDPMDYWGQGTLVTVSS
VL: DIQMTQSPSSLSASVGDRVTITCRASESVDNYGNTFMHWYQQKPGKAPKLLIYRASNLESGVPSRFSGSGSGTDFTFTISSLQPEDIATYYCQQSNEDPPTFGQGTKVEIK
B2 had an EC50 (half-maximal binding concentration) in assay [1] of 6.8 nM. Besides, the Max binding intensity (MFI) in assay [2] was 980000 MFI.

B3: h32716-6-2 IgG (antibody, V domains shown)
VH: B2 VH with R38K, L45F, E46K
VL: B2 VL
Consider B3, for which the EC50 (half-maximal binding concentration) in assay [1] turned out to be 11 nM. For the same molecule, in assay [2], the Max binding intensity (MFI) was 1e+06 MFI.

B4: h32716-5-2 IgG (antibody, V domains shown)
VH: B2 VH with R38K
VL: B2 VL
In the case of B4, the EC50 in assay [1] is 7.2 nM. Besides, in assay [2], the Max binding intensity (MFI) turned out to be 1.1e+06 MFI.

B5: h32716-1-1 IgG (antibody, V domains shown)
VH: QVQLVQSGAEVKKPGSSVKVSCKASGYIFTNYGMNWVRQAPGQGLEWMGWINTYTGESTYSADFKGRVTITADESTSTAYMELSSLRSEDTAVYYCARSGGYDPMDYWGQGTLVTVSS
VL: DIVMTQSPDSLAVSLGERATINCRASESVDNYGNTFMHWYQQKPGQPPKLLIYRASNLESGVPDRFSGSGSGTDFTLTISSLQAEDVAVYYCQQSNEDPPTFGQGTRLEIK
As for B5, the EC50 (half-maximal binding concentration) in assay [1] was 7.4 nM. In assay [2], this molecule registered a Max binding intensity (MFI) of 950000 MFI.

B6: h32716-3-1 IgG (antibody, V domains shown)
VH: B5 VH with R38K, L45F, E46K, V68F, I70F, A72L
VL: B5 VL
The molecule B6 registered an EC50 (half-maximal binding concentration) in assay [1] of 10 nM. This molecule also showed a Max binding intensity (MFI) in assay [2] of 940000 MFI.

B7: h32716-2-1 IgG (antibody, V domains shown)
VH: B5 VH with R38K, V68F, I70F, A72L
VL: B5 VL
Consider B7, for which the EC50 (half-maximal binding concentration) in assay [1] amounted to 11 nM. The molecule further came in with a Max binding intensity (MFI) in assay [2] of 930000 MFI.

Source of the values: patent US20240076392A1, “ANTI-CD123 BINDING MOLECULES AND USES THEREOF” (IGM Biosciences, Inc., priority 2021, published 2024).
